Results from paper PMC6722932 (Toxins, 2019).

Molecular target: the molecule itself
Assay: negative-stain electron microscopy; 7 uM lysenin incubated with MLVs of SM/DOPC/cholesterol (1:2:1) for 30 min at 20 °C, with or without 10 mM DTT; fixed with 1% glutaraldehyde, stained with 2% uranyl acetate

B1: lysenin^WT (natural protein)
chain: MSAKAAEGYEQIEVDVVAVWKEGYVYENRGSTSVDQKITITKGMKNVNSETRTVTATHSIGSTISTGDAFEIGSVEVSYSHSHEESQVSMTETEVYESKVIEHTITIPPTSKFTRWQLNADVGGADIEYMYLIDEVTPIGGTQSIPQVITSRAKIIVGRQIILGKTEIRIKHAERKEYMTVVSRKSWPAATLGHSKLFKFVLYEDWGGFRIKTLNTMYSGYEYAYSSDQGGIYFDQGTDNPKQRWAINKSLPLRHGDVVTFMNKYFTRSGLCYDDGPATNVYCLDKREDKWILEVVG
notes: also called recombinant lysenin; wild-type lysenin; source: E. coli BL21(DE3), purified (Ni Sepharose 6 Fast Flow)
binding result: binds
